# Measurements: patent publication US7018812 (DUKE UNIVERSITY, dated 2006)
# Bridges are numbered along the chain shown (N, C = ends). Where no end group is shown, it is not given here.
# T1: V2R-β2AR chimera (human)
# T1 construct: Whole receptor on HEK-293 cells; also called V2-β2AR; V2R-p2AR
# T1 chain: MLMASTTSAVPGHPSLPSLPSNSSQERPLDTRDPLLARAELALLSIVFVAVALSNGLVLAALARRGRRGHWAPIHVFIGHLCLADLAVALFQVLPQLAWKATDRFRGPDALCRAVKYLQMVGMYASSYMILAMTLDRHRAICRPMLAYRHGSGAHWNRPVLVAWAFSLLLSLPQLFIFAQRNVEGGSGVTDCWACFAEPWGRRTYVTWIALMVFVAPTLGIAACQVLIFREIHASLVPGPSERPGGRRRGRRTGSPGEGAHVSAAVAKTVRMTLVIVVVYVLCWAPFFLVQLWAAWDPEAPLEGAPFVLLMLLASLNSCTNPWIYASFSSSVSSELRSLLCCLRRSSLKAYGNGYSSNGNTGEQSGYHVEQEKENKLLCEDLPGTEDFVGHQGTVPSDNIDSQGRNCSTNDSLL
# How the values were obtained:
# V2R-β2AR chimera [1] = molecular target: T1, V2R-β2AR chimera; assay: cell-based or functional assay
# [2] = molecular target: β2AR-V2R chimera (Homo sapiens (Human)) (UniProt P07550); assay: cell-based or functional assay
# [3] = molecular target: wild-type V2R receptor (vasopressin V2 receptor), HA-tagged (human) (UniProt P30518); assay: cell-based or functional assay
# [4] = molecular target: wild-type β2AR receptor (β2-adrenergic receptor), HA-tagged (Homo sapiens (Human)) (UniProt P07550); assay: cell-based or functional assay
# V2R-β2AR chimera [5] = molecular target: T1, V2R-β2AR chimera; assay: [3H]AVP binding to membrane proteins of transfected HEK-293 cells; affinity not given
# Protocol: Membrane proteins (10 μg) from transfected HEK-293 cells expressing the V2R and V2R-β_2AR chimera were incubated in PBS containing 2% BSA at room temperature with increasing concentrations of [^3H] […] Binding was terminated by rapid filtration and consecutive washes with ice-cold wash buffer ([…], 50 mM Tris-HCl, pH=7.2).
# [6] = scale: % of Vmax measured under Naive conditions
Molecule,internalized receptor recycled back to the plasma membrane 60 min after agonist removal (flow cytometry) (V2R-β2AR chimera [1]) [%],"reduction in receptor phosphorylation 60 min after agonist removal (32P, immunoprecipitation) (V2R-β2AR chimera [1]) [% reduction]",recovery of Vmax of adenylyl cyclase activity one hour after agonist removal (resensitization) (V2R-β2AR chimera [1]; [6]),"change in receptor phosphorylation 60 min after agonist removal (32P, immunoprecipitation) [2] [% increase]",impairment of recovery of Vmax of adenylyl cyclase activity one hour after agonist removal (resensitization) [2] [%],internalized receptor recycled back to the plasma membrane 60 min after agonist removal (flow cytometry) [2] [%],impairment of recovery of Vmax of adenylyl cyclase activity one hour after agonist removal (resensitization) [3] [%],internalized receptor recycled back to the plasma membrane 60 min after agonist removal (flow cytometry) [3] [%],"reduction in receptor phosphorylation 60 min after agonist removal (32P, immunoprecipitation) [3] [% decrease]",internalized receptor recycled back to the plasma membrane 60 min after agonist removal (flow cytometry) [4] [%],"reduction in receptor phosphorylation 60 min after agonist removal (32P, immunoprecipitation) [4] [% reduction]","recovery of Vmax of adenylyl cyclase activity one hour after agonist removal (resensitization) [4, 6]",binding result (V2R-β2AR chimera [5])
β-arrestin,89,67,102,12,66,11,54,23,3,65,48,100,–
"CYFQNCPRG-NH2 (peptide, UniProt P01185 20-28, looked up, disulfide 1-6 (inferred); ends not checked; also: tritium label ([3H]AVP), place not given here, mature; only the hormone peptide stood in the assay; also called AVP; [3H]AVP) [arginine vasopressin]",–,–,–,–,–,–,–,–,–,–,–,–,binds
